Reference: patent publication US20120276009A1 (KATHOLIEKE UNIVERSITEIT LEUVEN, published 2012)

T1: T1.6: Tau5-20 (non-phosphorylated peptide) (human)
T1 construct: Non-phosphorylated counterpart of T1.5; also called Tau peptide
T1 peptide: RQEFEVMEDHAGTYGL


Columns and labels:
[1] = target: T2, full-length (441 aa) human Tau protein (human, UniProt P10636 1-758); assay: ELISA, protein coated at 1 µg/mL
T2 construct: Non-phosphorylated recombinant protein bought from SignalChem; also called Full-length Tau; Tau40

[2] = target: T1, T1.6: Tau5-20 (non-phosphorylated …); assay: ELISA, peptide coated at 10 µg/mL

T2 sequence (P10636 other isoform, or with tags, fused parts or gaps limits assumed): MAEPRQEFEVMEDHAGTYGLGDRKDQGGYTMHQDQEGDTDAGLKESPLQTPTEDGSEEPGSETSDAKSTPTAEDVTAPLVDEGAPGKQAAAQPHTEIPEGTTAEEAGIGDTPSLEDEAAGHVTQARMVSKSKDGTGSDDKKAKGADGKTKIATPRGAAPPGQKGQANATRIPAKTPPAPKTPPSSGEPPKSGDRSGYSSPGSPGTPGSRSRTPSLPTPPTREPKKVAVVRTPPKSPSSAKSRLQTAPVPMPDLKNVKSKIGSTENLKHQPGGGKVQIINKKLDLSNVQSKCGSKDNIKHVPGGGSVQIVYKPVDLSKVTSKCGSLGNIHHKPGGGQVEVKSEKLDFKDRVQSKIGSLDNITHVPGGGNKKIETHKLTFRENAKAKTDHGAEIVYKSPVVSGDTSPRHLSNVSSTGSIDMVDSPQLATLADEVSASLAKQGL

| binding result [1] | binding result [2] | Binder |
| --- | --- | --- |
| no binding (tested: 20 µg/mL) |  | ACI-35-2G5-Ab1 (antibody, IgG2b, V domains shown, Mouse monoclonal from hybridoma A6-2G5-08; also called A6-2G5-08) VH: QVQLKQSGAELVRPGASVKLSCKASGYTFTDYYINWVKQRPGQGLEWIARIYPGRGNIYYNEKFKGKATLTAEKSSSTAYMQLSSLTSEDSAVYFCARFWDVTYWGQGTLVTVSA VL: DVLMTQTPLSLPVSLGDQASISCRSSQSIVHSNGNTYLEWFLQKPGQSPKLLIYKVSNRFSGVPDRFSGSGSGTDFTLKISRVEAEDLGVYYCFQGSHVPYTFGGGTKLEIK |
|  | no binding (tested: 20 µg/mL) | ACI-33-6C10-Ab2 (antibody, IgG3, V domains shown, Mouse monoclonal from hybridoma 6C10E5E9C12 (DSM ACC3081); also called 6C10E5E9C12) VH: EVQLVESGGGLVKPGGSLKLSCAPSGFTFSDYGMHWVRQAPEKGLEWVAYISSGSSTIYYGDTVKGRFTISRDNAKNTLFLQMTSLRSEDTAMYYCARRGQLRLRLFAYWGQGTLVTVSA VL: DIVMTQSHKFMSTSVGDRVSITCKASQDVSTAVAWYQQKPGQSPKLLIYSASYRYTGVPDRFTGSGSGTDFTFTISSVQAEDLAVYYCQQHYTTPLTFGAGTKLELK |
